Experimental data published in IntAct's records for PubMed 31515488.

B1: Homeobox protein VENTX (Homo sapiens), O95231 (parent)
chain: MRLSSSPPRGPQQLSSFGSVDWLSQSSCSGPTHTPRPADFSLGSLPGPGQTSGAREPPQAVSIKEAAGSSNLPAPERTMAGLSKEPNTLRAPRVRTAFTMEQVRTLEGVFQHHQYLSPLERKRLAREMQLSEVQIKTWFQNRRMKHKRQMQDPQLHSPFSGSLHAPPAFYSTSSGLANGLQLLCPWAPLSGPQALMLPPGSFWGLCQVAQEALASAGASCCGQPLASHPPTPGRPSLGPALSTGPRGLCAMPQTGDAF
partner: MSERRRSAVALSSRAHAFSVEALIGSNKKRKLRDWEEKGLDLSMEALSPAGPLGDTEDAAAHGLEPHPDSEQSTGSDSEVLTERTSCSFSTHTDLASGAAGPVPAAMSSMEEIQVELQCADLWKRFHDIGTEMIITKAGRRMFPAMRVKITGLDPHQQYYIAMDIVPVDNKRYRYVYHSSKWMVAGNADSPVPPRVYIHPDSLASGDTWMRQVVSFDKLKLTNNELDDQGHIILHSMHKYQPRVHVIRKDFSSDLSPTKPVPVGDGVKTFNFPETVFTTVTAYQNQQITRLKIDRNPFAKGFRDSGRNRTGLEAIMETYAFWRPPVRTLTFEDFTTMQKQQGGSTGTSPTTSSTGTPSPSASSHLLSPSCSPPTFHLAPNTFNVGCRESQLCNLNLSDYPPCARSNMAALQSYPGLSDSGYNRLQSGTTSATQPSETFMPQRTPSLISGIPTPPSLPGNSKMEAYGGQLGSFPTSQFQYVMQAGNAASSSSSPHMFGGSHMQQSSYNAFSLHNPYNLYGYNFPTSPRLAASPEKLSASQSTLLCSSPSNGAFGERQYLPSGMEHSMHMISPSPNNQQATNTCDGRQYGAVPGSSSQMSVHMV
B2: Serine/threonine-protein kinase PAK 5 (Homo sapiens), Q9P286 (parent)
chain: MFGKKKKKIEISGPSNFEHRVHTGFDPQEQKFTGLPQQWHSLLADTANRPKPMVDPSCITPIQLAPMKTIVRGNKPCKETSINGLLEDFDNISVTRSNSLRKESPPTPDQGASSHGPGHAEENGFITFSQYSSESDTTADYTTEKYREKSLYGDDLDPYYRGSHAAKQNGHVMKMKHGEAYYSEVKPLKSDFARFSADYHSHLDSLSKPSEYSDLKWEYQRASSSSPLDYSFQFTPSRTAGTSGCSKESLAYSESEWGPSLDDYDRRPKSSYLNQTSPQPTMRQRSRSGSGLQEPMMPFGASAFKTHPQGHSYNSYTYPRLSEPTMCIPKVDYDRAQMVLSPPLSGSDTYPRGPAKLPQSQSKSGYSSSSHQYPSGYHKATLYHHPSLQSSSQYISTASYLSSLSLSSSTYPPPSWGSSSDQQPSRVSHEQFRAALQLVVSPGDPREYLANFIKIGEGSTGIVCIATEKHTGKQVAVKKMDLRKQQRRELLFNEVVIMRDYHHDNVVDMYSSYLVGDELWVVMEFLEGGALTDIVTHTRMNEEQIATVCLSVLRALSYLHNQGVIHRDIKSDSILLTSDGRIKLSDFGFCAQVSKEVPKRKSLVGTPYWMAPEVISRLPYGTEVDIWSLGIMVIEMIDGEPPYFNEPPLQAMRRIRDSLPPRVKDLHKVSSVLRGFLDLMLVREPSQRATAQELLGHPFLKLAGPPSCIVPLMRQYRHH
partner: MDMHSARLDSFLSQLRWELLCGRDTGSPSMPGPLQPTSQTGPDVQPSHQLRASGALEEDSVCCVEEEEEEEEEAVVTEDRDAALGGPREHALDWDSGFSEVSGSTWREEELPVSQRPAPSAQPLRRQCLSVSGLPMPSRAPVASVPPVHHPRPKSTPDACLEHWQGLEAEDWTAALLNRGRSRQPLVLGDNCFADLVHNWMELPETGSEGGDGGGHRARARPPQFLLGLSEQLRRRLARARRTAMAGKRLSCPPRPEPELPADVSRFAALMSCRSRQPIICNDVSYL
B3: LIM/homeobox protein Lhx4 (Homo sapiens), Q969G2 (parent)
chain: MMQSATVPAEGAVKGLPEMLGVPMQQIPQCAGCNQHILDKFILKVLDRHWHSSCLKCADCQMQLADRCFSRAGSVYCKEDFFKRFGTKCTACQQGIPPTQVVRKAQDFVYHLHCFACIICNRQLATGDEFYLMEDGRLVCKEDYETAKQNDDSEAGAKRPRTTITAKQLETLKNAYKNSPKPARHVREQLSSETGLDMRVVQVWFQNRRAKEKRLKKDAGRHRWGQFYKSVKRSRGSSKQEKESSAEDCGVSDSELSFREDQILSELGHTNRIYGNVGDVTGGQLMNGSFSMDGTGQSYQDLRDGSPYGIPQSPSSISSLPSHAPLLNGLDYTVDSNLGIIAHAGQGVSQTLRAMAGGPTSDISTGSSVGYPDFPTSPGSWLDEMDHPPF
partner: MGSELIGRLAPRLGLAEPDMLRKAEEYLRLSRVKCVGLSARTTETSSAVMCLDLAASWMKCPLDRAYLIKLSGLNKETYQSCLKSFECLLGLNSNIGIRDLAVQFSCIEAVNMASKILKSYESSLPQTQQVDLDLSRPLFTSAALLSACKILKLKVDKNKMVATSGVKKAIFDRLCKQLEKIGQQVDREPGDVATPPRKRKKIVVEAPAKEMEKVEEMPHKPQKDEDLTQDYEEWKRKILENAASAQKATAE
B4: DCC-interacting protein 13-alpha (Homo sapiens), Q9UKG1 (parent)
chain: MPGIDKLPIEETLEDSPQTRSLLGVFEEDATAISNYMNQLYQAMHRIYDAQNELSAATHLTSKLLKEYEKQRFPLGGDDEVMSSTLQQFSKVIDELSSCHAVLSTQLADAMMFPITQFKERDLKEILTLKEVFQIASNDHDAAINRYSRLSKKRENDKVKYEVTEDVYTSRKKQHQTMMHYFCALNTLQYKKKIALLEPLLGYMQAQISFFKMGSENLNEQLEEFLANIGTSVQNVRREMDSDIETMQQTIEDLEVASDPLYVPDPDPTKFPVNRNLTRKAGYLNARNKTGLVSSTWDRQFYFTQGGNLMSQARGDVAGGLAMDIDNCSVMAVDCEDRRYCFQITSFDGKKSSILQAESKKDHEEWICTINNISKQIYLSENPEETAARVNQSALEAVTPSPSFQQRHESLRPAAGQSRPPTARTSSSGSLGSESTNLAALSLDSLVAPDTPIQFDIISPVCEDQPGQAKAFGQGGRRTNPFGESGGSTKSETEDSILHQLFIVRFLGSMEVKSDDHPDVVYETMRQILAARAIHNIFRMTESHLLVTCDCLKLIDPQTQVTRLTFPLPCVVLYATHQENKRLFGFVLRTSSGRSESNLSSVCYIFESNNEGEKICDSVGLAKQIALHAELDRRASEKQKEIERVKEKQQKELNKQKQIEKDLEEQSRLIAASSRPNQASSEGQFVVLSSSQSEESDLGEGGKKRESEA
partner: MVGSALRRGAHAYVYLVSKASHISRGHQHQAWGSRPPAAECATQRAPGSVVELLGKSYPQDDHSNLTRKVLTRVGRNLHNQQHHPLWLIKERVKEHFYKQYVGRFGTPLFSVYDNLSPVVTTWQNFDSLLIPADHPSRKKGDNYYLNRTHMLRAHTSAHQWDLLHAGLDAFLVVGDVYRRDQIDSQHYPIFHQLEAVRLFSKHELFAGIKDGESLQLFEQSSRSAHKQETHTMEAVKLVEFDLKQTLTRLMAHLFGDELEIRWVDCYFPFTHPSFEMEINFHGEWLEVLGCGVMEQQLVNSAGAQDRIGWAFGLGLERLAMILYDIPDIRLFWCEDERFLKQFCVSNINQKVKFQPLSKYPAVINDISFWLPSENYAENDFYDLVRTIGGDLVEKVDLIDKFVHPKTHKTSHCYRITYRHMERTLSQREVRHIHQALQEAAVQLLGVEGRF
B5: Zinc finger protein 488 (Homo sapiens), Q96MN9 (parent)
chain: MPEWPPCLSVAPALVITMAAGKGAPLSPSAENRWRLSEPELGRGCKPVLLEKTNRLGPEAAVGRAGRDVGSAELALLVAPGKPRPGKPLPPKTRGEQRQSAFTELPRMKDRQVDAQAQEREHDDPTGQPGAPQLTQNIPRGPAGSKVFSVWPSGARSEQRSAFSKPTKRPAERPELTSVFPAGESADALGELSGLLNTTDLACWGRLSTPKLLVGDLWNLQALPQNAPLCSTFLGAPTLWLEHTQAQVPPPSSSSTTSWALLPPTLTSLGLSTQNWCAKCNLSFRLTSDLVFHMRSHHKKEHAGPDPHSQKRREEALACPVCQEHFRERHHLSRHMTSHS
partner: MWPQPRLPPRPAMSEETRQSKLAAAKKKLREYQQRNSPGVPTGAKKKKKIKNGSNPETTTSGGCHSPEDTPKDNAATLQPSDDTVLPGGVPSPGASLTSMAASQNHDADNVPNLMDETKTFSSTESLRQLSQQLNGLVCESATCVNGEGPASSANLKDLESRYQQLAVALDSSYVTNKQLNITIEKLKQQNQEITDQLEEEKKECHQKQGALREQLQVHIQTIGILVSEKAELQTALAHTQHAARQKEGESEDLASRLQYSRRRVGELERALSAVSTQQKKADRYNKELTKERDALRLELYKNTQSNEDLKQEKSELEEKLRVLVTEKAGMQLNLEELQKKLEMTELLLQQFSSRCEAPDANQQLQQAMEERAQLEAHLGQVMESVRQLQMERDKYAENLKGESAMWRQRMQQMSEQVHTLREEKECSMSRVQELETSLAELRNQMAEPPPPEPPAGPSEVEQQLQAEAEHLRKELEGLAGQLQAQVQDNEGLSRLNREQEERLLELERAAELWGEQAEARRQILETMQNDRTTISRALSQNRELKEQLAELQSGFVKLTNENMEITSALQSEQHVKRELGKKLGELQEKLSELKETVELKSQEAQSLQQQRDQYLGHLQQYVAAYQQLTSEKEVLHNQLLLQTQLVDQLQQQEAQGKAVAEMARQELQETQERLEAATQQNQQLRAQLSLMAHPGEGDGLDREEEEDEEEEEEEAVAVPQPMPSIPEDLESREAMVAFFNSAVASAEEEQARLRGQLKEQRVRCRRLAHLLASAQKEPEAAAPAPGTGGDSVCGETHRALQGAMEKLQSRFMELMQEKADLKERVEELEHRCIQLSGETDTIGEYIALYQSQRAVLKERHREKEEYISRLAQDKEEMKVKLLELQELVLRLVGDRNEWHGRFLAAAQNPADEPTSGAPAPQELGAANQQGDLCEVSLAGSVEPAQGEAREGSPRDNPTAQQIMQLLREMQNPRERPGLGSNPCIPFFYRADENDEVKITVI
B6: TNFAIP3-interacting protein 3 (Homo sapiens), Q96KP6 (parent)
chain: MAHFVQGTSRMIAAESSTEHKECAEPSTRKNLMNSLEQKIRCLEKQRKELLEVNQQWDQQFRSMKELYERKVAELKTKLDAAERFLSTREKDPHQRQRKDDRQREDDRQRDLTRDRLQREEKEKERLNEELHELKEENKLLKGKNTLANKEKEHYECEIKRLNKALQDALNIKCSFSEDCLRKSRVEFCHEEMRTEMEVLKQQVQIYEEDFKKERSDRERLNQEKEELQQINETSQSQLNRLNSQIKACQMEKEKLEKQLKQMYCPPCNCGLVFHLQDPWVPTGPGAVQKQREHPPDYQWYALDQLPPDVQHKANGLSSVKKVHP
B7: Maspardin (Homo sapiens), Q9NZD8 (parent)
chain: MGEIKVSPDYNWFRGTVPLKKIIVDDDDSKIWSLYDAGPRSIRCPLIFLPPVSGTADVFFRQILALTGWGYRVIALQYPVYWDHLEFCDGFRKLLDHLQLDKVHLFGASLGGFLAQKFAEYTHKSPRVHSLILCNSFSDTSIFNQTWTANSFWLMPAFMLKKIVLGNFSSGPVDPMMADAIDFMVDRLESLGQSELASRLTLNCQNSYVEPHKIRDIPVTIMDVFDQSALSTEAKEEMYKLYPNARRAHLKTGGNFPYLCRSAEVNLYVQIHLLQFHGTKYAAIDPSMVSAEELEVQKGSLGISQEEQ
partner: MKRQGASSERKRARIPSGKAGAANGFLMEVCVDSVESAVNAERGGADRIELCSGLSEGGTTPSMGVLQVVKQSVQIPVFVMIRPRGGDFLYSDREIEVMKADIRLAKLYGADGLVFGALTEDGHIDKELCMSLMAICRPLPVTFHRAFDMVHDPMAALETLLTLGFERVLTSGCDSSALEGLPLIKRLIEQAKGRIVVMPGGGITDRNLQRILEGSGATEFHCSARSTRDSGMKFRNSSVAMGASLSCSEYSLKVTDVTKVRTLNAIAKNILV
B8: Protein FAM9B (Homo sapiens), Q8IZU0 (parent)
chain: MAAWGKKHAGKDPVRDECEERNRFTETREEDVTDEHGEREPFAETDEHTGANTKKPEDTAEDLTAKRKRMKMDKTCSKTKNKSKHALRKKQLKRQKRDYIHSLKLLNVLEEYITDEQKEEEEEEGEEEELIRIFQEQQKKWQQYRSVRRERLKEMKLLRDQFVKALEDFEDLCDRVFSDEDSELDN
partner: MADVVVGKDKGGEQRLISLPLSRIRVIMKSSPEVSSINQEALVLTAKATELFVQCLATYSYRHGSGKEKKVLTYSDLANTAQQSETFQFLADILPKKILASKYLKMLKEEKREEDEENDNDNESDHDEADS

Variants of: B1
Conditions: with tbx15_human TBX15, Q96SF7
In the case of M251V, the “effect of a mutation on the interaction” value is reported as “with no effect”.

Variants of: B2
Conditions: with inka1_human INKA1, Q96EL1
With S511N the “effect of a mutation on the interaction” value was “with no effect”.

Variants of: B3
Conditions: with orc6_human ORC6, Q9Y5N6
N328S was tested, and the “effect of a mutation on the interaction” value was “with no effect”.

Variants of: B4
Conditions: with syfm_human FARS2, O95363
For E67G, the “effect of a mutation on the interaction” value was “with no effect”. For E643Q, the “effect of a mutation on the interaction” value was “with no effect”.

Variants of: B5
Conditions: with goga2_human GOLGA2, Q08379
With A72V the “effect of a mutation on the interaction” value was “with no effect”. In the case of C230R, the “effect of a mutation on the interaction” value is reported as “with no effect”.

Variants of: B6
Conditions: with taxb1_human TAX1BP1, Q86VP1
Sequence of taxb1_human TAX1BP1, Q86VP1 (Q86VP1 whole entry): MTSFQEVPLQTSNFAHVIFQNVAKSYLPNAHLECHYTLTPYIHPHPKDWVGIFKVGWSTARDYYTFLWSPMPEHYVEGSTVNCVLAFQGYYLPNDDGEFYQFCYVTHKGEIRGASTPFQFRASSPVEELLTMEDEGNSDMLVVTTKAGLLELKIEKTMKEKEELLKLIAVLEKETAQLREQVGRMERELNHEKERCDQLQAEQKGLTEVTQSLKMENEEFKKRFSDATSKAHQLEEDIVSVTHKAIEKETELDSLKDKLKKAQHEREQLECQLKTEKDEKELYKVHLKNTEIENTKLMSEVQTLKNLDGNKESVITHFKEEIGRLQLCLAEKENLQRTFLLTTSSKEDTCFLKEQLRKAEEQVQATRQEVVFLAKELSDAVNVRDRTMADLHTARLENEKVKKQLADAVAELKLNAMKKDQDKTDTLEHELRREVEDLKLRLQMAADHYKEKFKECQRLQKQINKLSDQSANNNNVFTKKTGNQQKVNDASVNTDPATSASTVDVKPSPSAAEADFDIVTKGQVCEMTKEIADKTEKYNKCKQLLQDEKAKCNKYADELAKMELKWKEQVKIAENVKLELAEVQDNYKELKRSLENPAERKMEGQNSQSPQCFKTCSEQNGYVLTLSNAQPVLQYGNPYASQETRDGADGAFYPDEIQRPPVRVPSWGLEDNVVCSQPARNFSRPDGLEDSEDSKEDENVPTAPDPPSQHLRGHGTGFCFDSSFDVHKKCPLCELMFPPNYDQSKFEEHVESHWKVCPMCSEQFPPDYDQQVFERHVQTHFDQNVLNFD
K99E was tested, and the “effect of a mutation on the interaction” value was “with no effect”.

Variants of: B7
Conditions: with cutc_human CUTC
A180T was tested, and the “effect of a mutation on the interaction” value was “with no effect”. For H272D, the “effect of a mutation on the interaction” value was “disrupting interaction strength”.

Variants of: B8
Conditions: with chrc1_human CHRAC1, Q9NRG0
R23H was tested, and the “effect of a mutation on the interaction” value was “with no effect”.
